Publication PMC3561395
Several values for one entry are separate records, joined by “and”; a condition that tells them apart may be missing. Equal entries are not always repeated.

Target: cytochrome c 552 from Thermus thermophilus HB8 (Thermus thermophilus HB8) (UniProt P04164)
Chain of UniProt P04164 (P04164 whole entry): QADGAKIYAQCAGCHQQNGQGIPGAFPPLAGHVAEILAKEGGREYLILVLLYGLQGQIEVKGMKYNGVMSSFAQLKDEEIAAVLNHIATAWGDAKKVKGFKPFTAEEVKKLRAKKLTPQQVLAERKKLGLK

forward rate constant kF of electron transfer with c 552, 4°C, ionic strength 12 mM [M⁻¹ s⁻¹]	reverse rate constant kR of electron transfer with c 552, 4°C, ionic strength 12 mM	Substance
7e+07	7e+06 M⁻¹ s⁻¹ and 3e+06 M⁻¹ s⁻¹	recombinant cytochrome c 550 C-terminal domain (c 550[C]) (domain or fragment)
1e+08	–	recombinant cytochrome c 550 N-terminal domain (c 550[N]) (domain or fragment)
